Data on four molecules can be found in patent publication US20180265572A1 (Bristol-Myers Squibb, published 2018).

Assay [1] concerns the target T1, human IGF-IR on cells (human, UniProt P08069 31-1367). The assay is described as follows: cell-based or functional assay.
Assay [2] has as its target T1, human IGF-IR on cells. The assay can be described thus: competitive blocking assay on R+ cells overexpressing human IGF-IR; competitor 200 nM IRDye 800CW-labelled AT580-PEG20-AT580. The method, then: Certain tandem constructs were evaluated for their ability to compete with mono-specific IGF-IR and VEGFR-2 binders in vitro.
R⁺, a gift from Renato Baserga (Thomas Jefferson University, Philadelphia, Pa.), is a mouse embryo fibroblast overexpressing human IGF-IR in the context of a deletion in the mouse IGF-IR gene. Cells were plated in 96 well plates at a concentration of 20,000 cells per well in DMEM (Invitrogen, Carlsbad, Calif.) containing 5% calf serum (Hyclone, Logan, Utah). The following day, cells were washed twice in serum free DMEM containing 0.1% BSA (Invitrogen, Carlsbad, Calif.). After the washes, the cells were incubated at 4° C. for 10 minutes in binding buffer (serum free DMEM+0.1% BSA) containing increasing concentrations of IGF-IR antagonists or controls. Typical controls included the mono-specific ¹⁰Fn3-based IGF-IR binder (AT580-PEG40, SEQ ID NO: 27) (positive control) or the mono-specific ¹⁰Fn3-based VEGFR2 binder (Peg-V2Bshort, SEQ ID NO: 28) (negative control). Following this brief exposure to antagonists, R⁺ cells were additionally exposed to 200 nM of a bi-valent ¹⁰Fn3-based IGF-IR binder (AT580-PEG20-AT580, SEQ ID NO: 27) labeled with IRDye 800CW according to the manufacturer instructions (Li-Cor Biosciences, Lincoln, Nebr.). […] The resulting data was analyzed using GraphPad Prism (GraphPad Software, La Jolla, Calif.).

Assay [3] deals with T2, human IGF-IR-Fc fusion (human, UniProt P08069 31-932).
T2 construct: range 1-932; If it counts on the precursor, it includes the signal peptide; also called IGF1R-Fc; not shown: hinge and constant regions of human IgG
The assay is described as follows: SPR (Biacore), binding to IGF-IR-Fc, n=1.

For assay [4], the target named is T2, human IGF-IR-Fc fusion. The assay can be described thus: SPR (Biacore T100), IGF-IR-Fc captured on Protein A; average over constructs; average over midscale and large scale material, with and without his tag; IGF1R. The method, then: (§1) Affinity data was also measured from midscale and large scale material, for the pegylated version of the tandem construct 385A08-Fn-V2B-cys (SEQ ID NO: 9, with and without his tag). The specific materials and methods for these calculations are described below.
(§2) An alternative method is to capture the IGF—IR-Fc on Protein A. This method was used for calculating the affinity and kinetics of certain versions of the construct 385A08-Fn-V2B-cys (both pegylated and non-pegylated and with or without his tag) from midscale and large scale materials. Specifically, IGF—IR-Fc was captured on Protein A immobilized on a Biacore CM5 sensor chip by amine coupling. VEGFR2-Fc was immobilized directly on a CM5 chip by amine coupling. The affinity and kinetic analysis involved the capture of IGF—IR-Fc on Protein A followed by injection of the tandem adnectin in solution over IGF—IR-Fc and VEGFR2-Fc. The analytical surface was regenerated between samples with glycine pH 1.5. Sensorgrams were obtained at each concentration and were evaluated using Biacore T100 evaluation software to determine the rate constants kₐ (kₒₙ) and kd (koff).
A general note: In SPR one partner is held on a chip, and binding of the other changes the refractive index at the surface.

Assay [5] has as its target T2, human IGF-IR-Fc fusion. The assay is described as follows: SPR (Biacore T100), IGF-IR-Fc captured on Protein A; average over constructs; average over midscale and large scale material, with and without his tag; IGF1R-Fc. The method, then: as §1, §2
The target of assay [6] is T3, VEGFR2-Fc (R&D Systems) (UniProt P35968 20-764).
T3 construct: Bought reagent; not shown: Fc part of the bought fusion; not described
The assay is described as follows: SPR (Biacore T100), VEGFR2-Fc immobilised directly on a CM5 chip; average over constructs; average over midscale and large scale material, with and without his tag; VEGFR2. Here is the method:
as §1
as §2, with “The affinity and kinetic analysis involved the capture of IGF—IR-Fc on Protein A followed by injection of the tandem adnectin in solution over IGF—IR-Fc and VEGFR2-Fc. The analytical surface was regenerated between samples with glycine pH 1.5.” left out
(§3) The functionality of the V2B domain was assessed by evaluating a concentration series of the midscale and large scale purification of the tandem construct 385A08-Fn-V2B (pegylated, and non-pegylated versions, his-tag and non-his-tag versions) vs. VEGFR2-Fc that was directly immobilized on a CM5 chip surface (GE, Piscataway, N.J.). […] Varying concentrations of 385A08-Fn-V2B in the solution phase were monitored for association (2 minutes) and dissociation (10 minutes) kinetics at a flow rate of 50 uL/min. […]

The target of assay [7] is T3, VEGFR2-Fc (R&D Systems). The assay is described as follows: SPR (Biacore T100), VEGFR2-Fc immobilised directly on a CM5 chip; average over constructs; average over midscale and large scale material, with and without his tag; VEGFR2-Fc. The method, then:
as §1
as §2, with “The affinity and kinetic analysis involved the capture of IGF—IR-Fc on Protein A followed by injection of the tandem adnectin in solution over IGF—IR-Fc and VEGFR2-Fc. The analytical surface was regenerated between samples with glycine pH 1.5.” left out
as §3

The target in assay [8] is T1, human IGF-IR on cells. The assay is described as follows: cell-based or functional assay. This is another data set of the same source.
In assay [9] the target is VEGFR2 fusion protein on Ba/F3 cells (extracellular domain of hVEGFR2 and intracellular domain of hEpoR) (human, UniProt P35968 20-764; P19235 274-508, limits assumed). The assay is described as follows: cell-based or functional assay.
Assay [10] deals with T3, VEGFR2-Fc (R&D Systems). The assay is described as follows: SPR (Biacore), VEGFR2-Fc immobilised directly on a CM5 chip, binder in solution; V2B domain; VEGFR2-Fc. Here is the method: (§4) The functionality of the V2B domain was assessed by evaluating a concentration series of the midscale and large scale purification of the tandem construct 385A08-Fn-V2B (pegylated, and non-pegylated versions, his-tag and non-his-tag versions) vs. VEGFR2-Fc that was directly immobilized on a CM5 chip surface (GE, Piscataway, N.J.). VEGFR2-Fc (R&D Systems, MN) was diluted to 12 ug/mL in 50 mM Acetate pH 5.0 for an immobilization level of ˜1300 RU. Varying concentrations of 385A08-Fn-V2B in the solution phase were monitored for association (2 minutes) and dissociation (10 minutes) kinetics at a flow rate of 50 uL/min. Two 30 second injections of 50 mM glycine pH 1.7 were used to regenerate the surface.

Assay [11] has as its target T3, VEGFR2-Fc (R&D Systems). The assay is described as follows: SPR (Biacore), VEGFR2-Fc immobilised directly on a CM5 chip, binder in solution; V2B domain; VEGFR2-Fc; average. The method, then: (§5) A concentration series of the midscale purification of the tandem construct 385A08-Fn-V2B (non pegylated, his-tagged version, SEQ ID NO: 8) was also evaluated. The functionality of each of the domains of this construct, specifically, the V2B domain, and the IGF-IR domain, was evaluated as described in the materials and methods section below.
as §4

For assay [12], the target named is T2, human IGF-IR-Fc fusion. The assay is described as follows: SPR (Biacore), IGF-IR-Fc captured on anti-human IgG, binder in solution (n of 1); IGF-IR domain; IGF-IR-Fc; n of 1. Here is the method: as §5
Another method to assess the functionality of the IGF-IR domain is to capture the IGF—IR-Fc on anti-human IgG (GE, Piscataway, N.J.). This was done for the midscale purified construct 385A08-Fn-V2B (non-pegylated, his-tag) as described in Example 5 above. The anti-human IgG was immobilized on flow cells 1 and 2 of a CM5 chip surface according the manufacturer's instructions. 100 nM human IGF—IR-Fc was injected for 2 minutes at 10 ul/min on flow cell 2. Subsequently a concentration series of the midscale prep was injected across both flow cell surfaces at 50 uL/min. Two injections of 50 mM Glycine pH 1.7 were used to regenerate the surface.

The target of assay [13] is T2, human IGF-IR-Fc fusion. The assay is described as follows: SPR (Biacore), IGF-IR-Fc captured on Protein A/G, HTPP purified binder in solution, n=1, KD approximate.

B1: AT580-PEG40 (designed binder)
chain: MGVSDVPRDLEVVAATPTSLLISWSARLKVARYYRITYGETGGNSPVQEFTVPKNVYTATISGLKPGVDYTITVYAVTRFRDYQPISINYRTEIDKPCQ
modifications: 40 kDa PEG at position 98 (cysteine)
As for B1, the “IC50 for inhibition of pIGF-1R activity, Western blot, HMVEC-L cells stimulated with VEGF and IGF-1” value in assay [1] is 100 nM. Moreover, the IC50 – broadly, the concentration needed to halve the response being measured – in [2] worked out at 600000 pM.

B2: AT577 (designed binder)
chain: MGVSDVPRDLEVVAATPTSLLISWSARLKVARYYRITYGETGGNSPVQEFTVPKNVYTATISGLKPGVDYTITVYAVTRFRDYQPISINYRTEIDKPSQ
B2: binding in [3] was characterised by a dissociation constant (Kd) of 76 pM. In other words, the picomolar range.

B3: pegylated version of the tandem construct 385A08-Fn-V2B-cys (with and without his tag) (designed binder)
chain: MGVSDVPRDLEVVAATPTSLLISWSARLKVARYYRITYGETGGNSPVQEFTVPKNVYTATISGLKPGVDYTITVYAVTRFRDYQPISINYRTEIDKPSTSTSTVSDVPRDLEVVAATPTSLLISWRHPHFPTRYYRITYGETGGNSPVQEFTVPLQPPTATISGLKPGVDYTITVYAVTDGRNGRLLSIPISINYRTEIDKPCQ
modifications: PEG on the single cysteine at position 203
notes: also called the various constructs tested
As to B3, the Kd – broadly, the constant that tells how readily two partners part at equilibrium – in [4] was found to be 840 pM; in [6], 10500 pM. In addition, the results for the koff in [5] and in assay [7] were 0.000247 s⁻¹ and 0.000102 s⁻¹, respectively. Also, the kon (commonly the rate constant with which the complex forms) in assay [5] was 315000 M⁻¹ s⁻¹; in assay [7], 11500 M⁻¹ s⁻¹.

B4: 385A08-Fn-V2B (non pegylated, his-tagged version) (designed binder)
chain: GVSDVPRDLEVVAATPTSLLISWSARLKVARYYRITYGETGGNSPVQEFTVPKNVYTATISGLKPGVDYTITVYAVTRFRDYQPISINYRTEIDKPSTSTSTVSDVPRDLEVVAATPTSLLISWRHPHFPTRYYRITYGETGGNSPVQEFTVPLQPPTATISGLKPGVDYTITVYAVTDGRNGRLLSIPISINYRTEIDKPSQHHHHHH
notes: also called 385A08-Fn-V2B (Ser tail); 385A08-Fn-V2B (with his tag)
B4: in assay [8], the “IC50, inhibition of proliferation of Rh41 cells (n=1)” value stood at 26000 pM. The “IC50, inhibition of VEGF-A dependent proliferation of Ba/F3 cells” value in [9] was found to be 1000 pM. The Kd is about 300 pM in assay [10], about 20 pM in [12] and about 300 pM in assay [13]. Further, the results for the koff in [11] and in assay [12] were 0.00045 s⁻¹ and 0.00017 s⁻¹, respectively. Moreover, the kon is 1.4e+06 M⁻¹ s⁻¹ in assay [11] and 1.1e+07 M⁻¹ s⁻¹ in assay [12].
